US11639389B2, “Binding molecules with modified J-chain” (IGM Biosciences, Inc., dated 2023)

Molecular target: DR5 (TRAILR2) (Homo sapiens)
Experiment: cell-based or functional assay

Binder	cell viability of COLO205 cells after 24 hours (Cell-Titer Glo)
anti-DR5 IgM (without J-chain) (antibody, V domains shown) VH: EVQLVQSGGGVERPGGSLRLSCAASGFTFDDYGMSWVRQAPGKGLEWVSGINWNGGSTGYADSVKGRVTISRDNAKNSLYLQMNSLRAEDTAVYYCAKILGAGRGWYFDLWGKGTTVTVSS VL: SSELTQDPAVSVALGQTVRITCQGDSLRSYYASWYQQKPGQAPVLVIYGKNNRPSGIPDRFSGSSSGNTASLTITGAQAEDEADYYCNSRDSSGNHVVFGGGTKLTVLG	> 1000 fold, compared to the corresponding IgG
anti-DR5 IgM+wt J-chain (antibody) heavy: not shown light: SSELTQDPAVSVALGQTVRITCQGDSLRSYYASWYQQKPGQAPVLVIYGKNNRPSGIPDRFSGSSSGNTASLTITGAQAEDEADYYCNSRDSSGNHVVFGGGTKLTVLGQPKAAPSVTLFPPSSEELQANKATLVCLISDFYPGAVTVAWKADSSPVKAGVETTTPSKQSNNKYAASSYLSLTPEQWKSHRSYSCQVTHEGSTVEKTVAPTECS not shown	> 1000 fold, compared to the corresponding IgG
